Measured values as given in patent US20210187091A1 (DUKE UNIVERSITY, published 2021).

Columns and labels:
Man9-V3 glycopeptide [1] = molecular target: T1, Man9-V3 glycopeptide (HIV-1 clade B JRFL, Man9GlcNAc2 at N301 and at N332; disulfide bridge between C296 and C331 (cyclized); biotin tag); experiment: BLI, biotinylated Man9-V3 on streptavidin sensors, antibody in solution, bivalent avidity model
T1 construct: 30-amino acid synthetic V3 glycopeptide based on the clade B JRFL mini-V3 construct (residues 305-320 deleted); captured by its biotin on streptavidin sensors, or tetramerized on streptavidin for sorting; also called Man-V3 glycopeptide; Man9-V3-biotin
T1 peptide: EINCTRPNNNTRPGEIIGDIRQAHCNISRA

Man9-V3 glycopeptide [2] = molecular target: T1, Man9-V3 glycopeptide; experiment: BLI, biotinylated Man9-V3 on streptavidin sensors, antibody in solution
[3] = molecular target: T2, cell surface membrane expressed CH848 TF Env trimer (CHO cells) (HIV-1 clade C (CH848 …)); experiment: flow cytometry on CHO cells expressing CH848 TF Env trimer
T2 construct: also called cell surface membrane expressed gp160 trimers; CH848 Env trimer expressed on the cell surface of CHO cells

B1: DH270.6 (antibody, V domains shown)
VH: QVQLVQSGAQMKNPGASVKVSCAPSGYTFTDFYIHWLRQAPGQGLQWMGWMNPQTGRTNTARNFQGRVIMTRDTSIGTAYMELRSLTSDDTAIYYCTTGGWISLYYDSSYYPNFDHWGQGTLLTVSS
VL: TSLLTQPASVSGSPGQSITISCTGTKYDVGSHDLVSWYQQYPGKVPKYMIYEVNKRPSGVSNRFSGSKSGNTASLTISGLRAEDEADYYCCSFGGSATVVCGGGTKVTVL
notes: Recombinant IgG
B1 showed a Kd (Man9-V3 glycopeptide [1]) of 188 nM.

B2: DH270.IA3 (antibody, V domains shown)
VH: EVQLVESGPELKEPGASVKVSCKASGYTFTDYYIHWVRQAPGQGLEWMAWINPTTGRSSFARGFQGRVIMTRETSVSTAYMELRRLRSDDTAVYYCAKAGYIALYVDYSGYPNFNSWGQGTLVTVSS
VL: QSALTQPASVSGSPGQSITISCTGTSYDVGSYNLVSWYQQHPGKAPKLIIYEVSQWPSGVSKRFSGSKSGNTASLTISGLQAEDEAHYYCCSYAGSSTVIFGGGTSLTVL
B2 was tested, and the Kd (Man9-V3 glycopeptide [2]) was over 10000 nM.

B3: DH270.IA4 (antibody, V domains shown)
VH: QVQLVQSGAEVKKPGASVKVSCKASGYTFTDYYIHWVRQAPGQGLEWMGWINPNTGRTNYAQKFQGRVTMTRDTSISTAYMELSRLRSDDTAVYYCARGGWIGLYYDSSGYPNFDYWGQGTLVTVSS
VL: QSALTQPASVSGSPGQSITISCTGTSYDVGSYNLVSWYQQHPGKAPKLMIYEVSKRPSGVSNRFSGSKSGNTASLTISGLQAEDEADYYCCSYAGSSTVIFGGGTKLTVL
notes: Inferred intermediate, recombinant IgG; copies: 2 + 2
B3: no binding (tested: 5 µg/mL) [3].

B4: DH270.UCA (antibody, V domains shown)
VH: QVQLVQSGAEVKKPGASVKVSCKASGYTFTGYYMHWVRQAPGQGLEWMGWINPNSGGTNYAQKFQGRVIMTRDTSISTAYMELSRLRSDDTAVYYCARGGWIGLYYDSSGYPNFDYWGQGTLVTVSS
VL: QSALTQPASVSGSPGQSITISCTGTSSDVGSYNLVSWYQQHPGKAPKLMIYEVSKRPSGVSNRFSGSKSGNTASLTISGLQAEDEADYYCCSYAGSSTVIFGGGTKLTVL
notes: also called UCA4; DH270UCA4
B4: no binding (tested: 5 µg/mL) [3].

B5: DH270.IA2 (antibody, V domains shown)
VH: QVQLVQSGAEMKKPGASVKVSCKASGYTFTDYYIHWVRQAPGQGLEWMGWINPNTGRTNYAQKFQGRVTMTRDTSISTAYMELSRLTSDDTAVYYCATGGWIGLYYDSSGYPNFDYWGQGTLVTVSS
VL: QSALTQPASVSGSPGQSITISCTGTSYDVGSYNLVSWYQQHPGKAPKYMIYEVNKRPSGVSNRFSGSKSGNTASLTISGLQAEDEADYYCCSYAGSSTVIFGGGTKLTVL
notes: Inferred intermediate, recombinant IgG
B5: no binding (tested: 5 µg/mL) [3].
